Results taken from patent US20140287434.

Legend:
Peptide B = molecular target: T1, Peptide B
T1 chain: EQEDEPEGIYGVLF

[1] = molecular target: T2, biotinylated PLCγ1 SH2C-Peptide B fusion protein, P10686
T2 chain: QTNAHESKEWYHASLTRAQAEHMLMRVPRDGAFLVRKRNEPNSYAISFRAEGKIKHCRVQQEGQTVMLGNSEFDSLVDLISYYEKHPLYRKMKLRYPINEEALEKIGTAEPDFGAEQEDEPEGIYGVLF

[2] = molecular target: Itk SH3-SH2 (Itk 32), Q03526
Itk SH3, Q03526 = molecular target: T3, Itk SH3, Q03526
T3 chain: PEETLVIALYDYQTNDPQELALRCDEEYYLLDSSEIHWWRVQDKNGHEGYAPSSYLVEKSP

[3] = molecular target: T4, Itk SH3-Linker (Itk 3Linker), Q03526
T4 chain: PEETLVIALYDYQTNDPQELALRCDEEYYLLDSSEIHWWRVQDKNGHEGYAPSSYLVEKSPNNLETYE

[4] = molecular target: N-terminal Phosphatidylinositol 3-Kinase (p85α) SH2 domain (PI3K SH2)
PLCγ1 -Y783-SH3, P10686 = molecular target: T5, PLCγ1 -Y783-SH3, P10686
T5 chain: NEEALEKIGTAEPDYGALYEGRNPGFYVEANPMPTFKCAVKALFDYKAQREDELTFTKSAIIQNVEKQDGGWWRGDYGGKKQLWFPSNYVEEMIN

[5] = molecular target: T6, PLCγ1 SH2C -Y783-, P10686
T6 chain: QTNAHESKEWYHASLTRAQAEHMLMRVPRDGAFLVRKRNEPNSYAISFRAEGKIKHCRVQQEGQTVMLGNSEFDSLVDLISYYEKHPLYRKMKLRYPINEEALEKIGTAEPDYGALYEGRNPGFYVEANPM

[6] = molecular target: T7, free Itk SH2 domain, Q03526
T7 chain: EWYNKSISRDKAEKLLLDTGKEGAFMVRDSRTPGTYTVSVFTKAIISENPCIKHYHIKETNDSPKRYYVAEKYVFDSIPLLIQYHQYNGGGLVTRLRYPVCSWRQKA

[7] = molecular target: T8, free PLCγ1 SH2C domain, P10686
T8 chain: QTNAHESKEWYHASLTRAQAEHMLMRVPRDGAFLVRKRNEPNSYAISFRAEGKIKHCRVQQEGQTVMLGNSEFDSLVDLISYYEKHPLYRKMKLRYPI

[8] = molecular target: full-length wild-type Lck

Sequence of Grb2 SH2 domain (chain, as listed by the source): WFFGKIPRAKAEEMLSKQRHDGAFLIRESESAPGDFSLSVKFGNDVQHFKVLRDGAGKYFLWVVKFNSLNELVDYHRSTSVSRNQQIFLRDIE

B1: FLAG-tagged Itk LKD enzyme (protein)
chain: CSWRQKAPVTAGLRYGKWVIQPSELTFVQEIGSGQFGLVHLGYWLNKDKVAIKTIQEGAMSEEDFIEEAEVMMKLSHPKLVQLYGVCLEQAPICLVFEFMEHGCLSDYLRSQRGLFAAETLLGMCLDVCEGMAYLEKACVIHRDLAARNCLVGENQVIKVSDFGMTRFVLDDQYTSSTGTKFPVKWASPEVFSFSRYSSKSDVWSFGVLMWEVFSEGKIPYENRSNSEVVEDISTGFRLYKPRLASCHVYQIMNHCWKEKPEDRPPFSQLLSQLAEIAEAGL
- Km (Peptide B): 87 µM for Peptide B alone
- Km [1]: 5.64 µM for the SH2-Peptide B fusion
- fold increase in substrate affinity against Peptide B alone [1]: exhibiting a 15-fold increase in substrate affinity
- kcat/Km against Peptide B alone [1]: Peptide B is a better substrate by 7-fold (kat/Km) when tethered to the SH2 domain of PLCγ1

B2: FLAG-tagged Itk kinase domain (Itk KD) (protein)
chain: VIQPSELTFVQEIGSGQFGLVHLGYWLNKDKVAIKTIQEGAMSEEDFIEEAEVMMKLSHPKLVQLYGVCLEQAPICLVFEFMEHGCLSDYLRSQRGLFAAETLLGMCLDVCEGMAYLEKACVIHRDLAARNCLVGENQVIKVSDFGMTRFVLDDQYTSSTGTKFPVKWASPEVFSFSRYSSKSDVWSFGVLMWEVFSEGKIPYENRSNSEVVEDISTGFRLYKPRLASCHVYQIMNHCWKEKPEDRPPFSQLLSQLAEIAEAGL
- phosphorylation of Itk 32 by the isolated Itk kinase domain (anti-pY180 blot) [2]: The Itk catalytic fragment leads to substrate phosphorylation

B3: FLAG-tagged Itk full-length (FLItk) enzyme (protein)
chain: MNNFILLEEQLIKKSQQKRRTSPSNFKVRFFVLTKASLAYFEDRHGKKRTLKGSIELSRIKCVEIVKSDISIPCHYKYPFQTLVYLQVVHDNYLLYVFAPDCESRQRWVLTLKEETRNNNSLVSKYHPNFWMDGRWRCCSQLEKPAVGCAPYDPSKNASKKPLPPTPEDNRRSFQEPEETLVIALYDYQTNDPQELALRCDEEYYLLDSSEIHWWRVQDKNGHEGYAPSSYLVEKSPNNLETYEWYNKSISRDKAEKLLLDTGKEGAFMVRDSRTPGTYTVSVFTKAIISENPCIKHYHIKETNDSPKRYYVAEKYVFDSIPLLIQYHQYNGGGLVTRLRYPVCSWRQKAPVTAGLRYGKWVIQPSELTFVQEIGSGQFGLVHLGYWLNKDKVAIKTIQEGAMSEEDFIEEAEVMMKLSHPKLVQLYGVCLEQAPICLVFEFMEHGCLSDYLRSQRGLFAAETLLGMCLDVCEGMAYLEKACVIHRDLAARNCLVGENQVIKVSDFGMTRFVLDDQYTSSTGTKFPVKWASPEVFSFSRYSSKSDVWSFGVLMWEVFSEGKIPYENRSNSEVVEDISTGFRLYKPRLASCHVYQIMNHCWKEKPEDRPPFSQLLSQLAEIAEAGL
- phosphorylation of Itk 32 and PLCγ1 SH2C -Y783- by full-length Itk (Grb2 SH2 domain): two different control SH2 domains (derived from PI3K and Grb2) do not inhibit the phosphorylation of the substrates even at large molar excess
- phosphorylation on Y180 in an in vitro kinase assay (Itk SH3, Q03526): the isolated SH3 domain does not serve as a substrate for full length Itk
- phosphorylation on Y180 in an in vitro kinase assay [3]: Only Itk fragments that contain the SH2 domain and Y180 are phosphorylated by Itk
- phosphorylation on Y180 in an in vitro kinase assay [2]: only substrates that contain both the site of phosphorylation (Y180 for Itk, Y187 for Tec, Y223 for Btk, and Y783 for PLCγ1) and the adjacent SH2 domain are phosphorylated by the Tec kinases
- phosphorylation of Itk 32 and PLCγ1 SH2C -Y783- by full-length Itk [4]: two different control SH2 domains (derived from PI3K and Grb2) do not inhibit the phosphorylation of the substrates even at large molar excess
- phosphorylation on Y783 in an in vitro kinase assay (PLCγ1 -Y783-SH3, P10686): is not phosphorylated by full length Itk
- phosphorylation on Y783 in an in vitro kinase assay [5]: only substrates that contain both the site of phosphorylation (Y180 for Itk, Y187 for Tec, Y223 for Btk, and Y783 for PLCγ1) and the adjacent SH2 domain are phosphorylated by the Tec kinases
- autophosphorylation of Tyr 180 within full length Itk [6]: autophosphorylation at this site is greatly diminished upon addition of free Itk SH2 domain
- initial velocity of peptide B phosphorylation by full length Itk [6]: do not change significantly with increasing concentrations of Itk SH2 domain
- phosphorylation of Itk 32 substrate on Y180 by full-length Itk (anti-pY180 blot) [6]: free Itk SH2 domain competes with the Itk 32 substrate
- phosphorylation of PLCγ1 SH2C -Y783- substrate by full-length Itk (anti-pY783 blot) [7]: The PLCγ1 SH2 domain competes with the PLCγ1 substrate in a similar manner

B4: FLAG-tagged Tec full-length enzyme (enzyme, UniProt P42680 1-631, looked up, species assumed)
chain: MNFNTILEEILIKRSQQKKKTSPLNYKERLFVLTKSMLTYYEGRAEKKYRKGFIDVSKIKCVEIVKNDDGVIPCQNKYPFQVVHDANTLYIFAPSPQSRDLWVKKLKEEIKNNNNIMIKYHPKFWTDGSYQCCRQTEKLAPGCEKYNLFESSIRKALPPAPETKKRRPPPPIPLEEEDNSEEIVVAMYDFQAAEGHDLRLERGQEYLILEKNDVHWWRARDKYGNEGYIPSNYVTGKKSNNLDQYEWYCRNMNRSKAEQLLRSEDKEGGFMVRDSSQPGLYTVSLYTKFGGEGSSGFRHYHIKETTTSPKKYYLAEKHAFGSIPEIIEYHKHNAAGLVTRLRYPVSVKGKNAPTTAGFSYEKWEINPSELTFMRELGSGLFGVVRLGKWRAQYKVAIKAIREGAMCEEDFIEEAKVMMKLTHPKLVQLYGVCTQQKPIYIVTEFMERGCLLNFLRQRQGHFSRDVLLSMCQDVCEGMEYLERNSFIHRDLAARNCLVSEAGVVKVSDFGMARYVLDDQYTSSSGAKFPVKWCPPEVFNYSRFSSKSDVWSFGVLMWEVFTEGRMPFEKYTNYEVVTMVTRGHRLYQPKLASNYVYEVMLRCWQEKPEGRPSFEDLLRTIDELVECEETFGR
modifications: full-length FLAG tag
- phosphorylation on Y187 in an in vitro kinase assay (Tec SH3-SH2 (Tec 32)): only substrates that contain both the site of phosphorylation (Y180 for Itk, Y187 for Tec, Y223 for Btk, and Y783 for PLCγ1) and the adjacent SH2 domain are phosphorylated by the Tec kinases
- phosphorylation on Y187 in an in vitro kinase assay (Tec SH3): are not phosphorylated by the Tec and Btk kinases

B5: Catalytically inactive (K390R) Itk kinase domain (KD) (protein)
chain: VIQPSELTFVQEIGSGQFGLVHLGYWLNRDKVAIKTIQEGAMSEEDFIEEAEVMMKLSHPKLVQLYGVCLEQAPICLVFEFMEHGCLSDYLRSQRGLFAAETLLGMCLDVCEGMAYLEKACVIHRDLAARNCLVGENQVIKVSDFGMTRFVLDDQYTSSTGTKFPVKWASPEVFSFSRYSSKSDVWSFGVLMWEVFSEGKIPYENRSNSEVVEDISTGFRLYKPRLASCHVYQIMNHCWKEKPEDRPPFSQLLSQLAEIAEAGL
- phosphorylation of Itk Y511 by Lck (Btk phosphoY551 antibody blot) [8]: phosphorylation of the Itk kinase domain alone (on Y511) by Lck is very inefficient

B6: Catalytically inactive (K390R) Itk SH2-kinase domain (2KD) (protein)
chain: EWYNKSISRDKAEKLLLDTGKEGAFMVRDSRTPGTYTVSVFTKAIISENPCIKHYHIKETNDSPKRYYVAEKYVFDSIPLLIQYHQYNGGGLVTRLRYPVCSWRQKAPVTAGLRYGKWVIQPSELTFVQEIGSGQFGLVHLGYWLNRDKVAIKTIQEGAMSEEDFIEEAEVMMKLSHPKLVQLYGVCLEQAPICLVFEFMEHGCLSDYLRSQRGLFAAETLLGMCLDVCEGMAYLEKACVIHRDLAARNCLVGENQVIKVSDFGMTRFVLDDQYTSSTGTKFPVKWASPEVFSFSRYSSKSDVWSFGVLMWEVFSEGKIPYENRSNSEVVEDISTGFRLYKPRLASCHVYQIMNHCWKEKPEDRPPFSQLLSQLAEIAEAGL
- phosphorylation of Itk Y511 by Lck (Btk phosphoY551 antibody blot) [8]: Lck phosphorylation of the SH2-kinase fragment of Itk proceeds readily
